Test results published in patent US20240209104A1 (SHANGHAI ACEMAB, published 2024).
Numbering of substitutions follows the chain as printed.

T1: hOX40-EC-His (human, UniProt P43489 29-214)
T1 construct: extracellular domain; bought protein; also called recombinant human OX40 antigen protein; human OX40 extracellular segment antigen; not shown: 6 His label
T1 sequence (looked up): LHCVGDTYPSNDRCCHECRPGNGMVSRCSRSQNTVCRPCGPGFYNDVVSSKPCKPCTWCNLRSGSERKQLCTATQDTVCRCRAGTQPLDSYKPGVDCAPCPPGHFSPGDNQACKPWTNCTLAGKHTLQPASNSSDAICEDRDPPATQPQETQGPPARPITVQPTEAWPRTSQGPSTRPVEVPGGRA

T2: OX40 on OX40 over-expressed cells (UniProt P43489 29-277)
T2 construct: whole, on cells; human implied; also called OX40 expressed on the surface of OX40 expressing cell
T2 sequence (looked up): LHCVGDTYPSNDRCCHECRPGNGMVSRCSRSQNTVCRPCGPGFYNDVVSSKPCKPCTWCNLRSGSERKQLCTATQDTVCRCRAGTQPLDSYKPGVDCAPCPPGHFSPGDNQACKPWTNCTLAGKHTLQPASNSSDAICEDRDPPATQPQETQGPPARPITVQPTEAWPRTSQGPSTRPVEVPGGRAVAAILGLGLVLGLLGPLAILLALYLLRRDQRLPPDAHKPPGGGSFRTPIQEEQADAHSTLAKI

B1: 21F3-11 (antibody, V domains shown)
VH: QVQLQESGPGLVKPSGTLSLTCAVSGGSISSSNWWSWVRQPPGKGLEWIGEIYHGGSTNYNPSLKSRITISVDKSKNQFSLKLSSVTAADTAMYYCATLPGYSSGWFDSWGQGTLVTVSS
VL: EIVLMQSPGTLSLSPGERATLSCRASQSVSSSYLAWYQQKPGQAPSLLIYGASNRASGIPDRFSGSGSGTDFTLTITRLEPEDFAVYYCQQYGSSPLTFGGGTRVEIKR
notes: hybridoma antibody, tested as culture supernatant
B2: 24A12-12 (antibody, V domains shown)
VH: QVQLQESGPGLVKPAGTLSLTCAVSGGSISSSNWWNWVRQPPGKGLEWIGEIYHSGSTNYNPSLKSRVTISVDTSKNQFSLKLTSVTAADTAVYYCARTGPTVTTDYWGQGTLVTVSS
VL: B1 VL with M5T, S46R, N54Y, S57T, I59M, D61E, T77S, V86I, S94R, R104K
notes: as for B1
B3: 20D2-12 (antibody, V domains shown)
VH: QVQLVESGGGLVKPGGSLRLSCAASGFTFSDYYMSWIRQAPGRGLEWISYISGSDSTIYYEDSVMGRFTISRDNAKNSLYLQMNSLRAEDTAVYYCARDRDVYGYSGYGYFDYWGQGTLVTVSS
VL: B1 VL with M5T, S32R, S46R, S57T, I59M, T77S, L97I, G101Q, V105L
notes: as for B1
B4: 21D2-3 (antibody, V domains shown)
VH: QVQLVESGGGLVKPGGSLRLSCAASGFTFSDYYMSWIRQAPGKGLEWVSYISSSGTTIYCADSVKGRFTISRDNAKNSLYLQMNSLRAEDTAVYYCARDSSTWYEGNYFDYWGQGTLVTVSS
VL: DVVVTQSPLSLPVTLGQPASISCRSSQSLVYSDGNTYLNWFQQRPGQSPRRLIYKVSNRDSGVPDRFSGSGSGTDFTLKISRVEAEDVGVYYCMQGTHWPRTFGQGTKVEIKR
notes: as for B1
B5: 29A9-5 (antibody, V domains shown)
VH: QVQLQESGPGLVKPSGTLSLTCAVFGDSISSSYWWSWVRQPPGKGLEWIGEIYHSGSTHYNPSLKSRVTISVDKSKNHLSLKLISVTDADTAVYYCAGEDTGWPFDFWGQGTLVTVSS
VL: not shown
notes: as for B1
B6: 15A7-6 (antibody, V domains shown)
VH: QVQLQESGPGLVKPSGTLSLTCAVSGGSINSSSWWSWVRQPPGKGLEWIGEIYHSGDTNYNPSLKSRVAISVDKSKNQFSLKLSSVTAADTAVYYCARDQADYFGSGNYVYWGQGTLVTVSS
VL: EIVLMQYPGTLSLSSGERRVLSCRPSQSVSSSYLAWYQQKPGQAPRLLIYGASSRASGIPDRFSGSGSGTDFTLTISRLEPEDFAVYYCQQYGSLPITFGQGTRVEIKR
notes: as for B1
B7: 24F10-1 (antibody, V domains shown)
VH: QVQLQESGPGLVKPSGNLSLTCVVSGASIINNNWWTWVRQSPGKGLEWIGEIFHSGTTNYNPSLKNRVTISVDKAKNQFSLNLKSVTAADTAVYYCVAYVSGTYYNFDYWGQGTLVTVSS
VL: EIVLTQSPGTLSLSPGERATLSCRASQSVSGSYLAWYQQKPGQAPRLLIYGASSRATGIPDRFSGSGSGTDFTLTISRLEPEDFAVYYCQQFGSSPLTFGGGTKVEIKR
notes: as for B1
B8: 24F8-7 (antibody, V domains shown)
VH: QVQLQESGPGLVKPSGTLSLTCAVSGGSISSYNWWSWVRQPPGKGLEWIGEIYHSGSTNYNPSLKSRVTISVDKSKNQFSLKLSSVTAADTAVYYCARDEDYYGSGNYYHWGQGTLVTVSS
VL: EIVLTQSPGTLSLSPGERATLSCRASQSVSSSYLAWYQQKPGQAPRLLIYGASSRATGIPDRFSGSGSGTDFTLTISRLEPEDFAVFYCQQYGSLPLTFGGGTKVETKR
notes: as for B1
B9: 18F11-4 (antibody, V domains shown)
VH: B8 VH
VL: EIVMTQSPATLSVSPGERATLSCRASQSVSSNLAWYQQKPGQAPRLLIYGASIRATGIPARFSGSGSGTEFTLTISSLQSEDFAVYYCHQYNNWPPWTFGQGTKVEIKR
notes: as for B1
B10: 21F9-12 (antibody, V domains shown)
VH: B8 VH with S57N, V93M, E100Q, Y108F, H110Y
VL: not shown
notes: as for B1
B11: 35B8-6 (antibody, V domains shown)
VH: QITLKESGPTLVKPTQTLTLTCTFSGFSLSTSAVNVGWIRQPHGKALEWLALIFWNDDKRYSPSLKNRLTITKDTSKDQVVLTMSNMDPVDTATYYCAQYNWNSSFDYWGQGTLVTVSS
VL: DIQMTQSPSSLSASLGDRVTITCQASQDINTYLNWYQQKPGKAPKVLIYDASNLETGVPSRFSGSGSGTDFTFTISSLQPEDIATFYCQQYDNLITFGGGTKVEIKR
notes: as for B1
B12: 24E10-4 (antibody, V domains shown)
VH: QVQMQESGPGLVKPSGTLSLTCAVSGGSISSSKWWSWVRQPPGKGLEWIGEIYHSGSTNYNPSLKSRVTISIDKSKNQFSLRLTSVTAADTAVYYCARGDVLLWFGGQGTLVTVSS
VL: EIVLTQSPGTLSLSPGERATLSCWASQSVSSTYLAWYQQKPGQAPRLLIYGASIRATGIPDRFSGSGSGTDFTLTISSLEPEDFAVYYCQQYGSSPITFGQGTRLEIKR
notes: as for B1
B13: 17D5-11 (antibody, V domains shown)
VH: QVQLQESGPGLVKPSETLSLTCAVSGGSINSTNWWSWVRQPPGKGLEWIGEIYHSGSTNYNPSLKSRVTISVDKSKNQFSLKLSSVTAADTAVYYCARGGAVALDYWGQGTLVTVSS
VL: B12 VL with T10P, E17D, W24R, S28T, T32S, Q38L, S78R, S94N
notes: as for B1
B14: 26C3-4 (antibody, V domains shown)
VH: B12 VH with M4L, A23D, K33N, I72V, F79V, R82K, T84N, V101I
VL: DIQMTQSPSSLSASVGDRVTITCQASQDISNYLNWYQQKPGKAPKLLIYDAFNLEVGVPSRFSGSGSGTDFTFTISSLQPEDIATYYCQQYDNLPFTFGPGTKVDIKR
notes: as for B1
B15: 18F5-2 (antibody, V domains shown)
VH: B12 VH with T21I
VL: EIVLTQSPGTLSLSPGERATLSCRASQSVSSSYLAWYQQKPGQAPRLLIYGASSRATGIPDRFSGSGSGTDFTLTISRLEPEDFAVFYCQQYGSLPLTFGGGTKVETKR
notes: as for B1
B16: 28E3-4 (antibody, V domains shown)
VH: QVQLQESGPGLVKPSGTLSLTCAVSGGSISRSNWWTWVRQSPGKGLEWIGEIYHSGNTNYNPSLKSRVTISLDKSKNQFSLKLSSVTAADTAVYYCASSGSLYMDVWGKGTTVTVSS
VL: DIQMTQSPSSLSASVGDRVTISCRASQSTSSYLNWYQQKPGKAPRLLIYGASSLQSGVPSRFSGSGSGTDFILTISSLQPEDFATYYCQQSYSIPITFGQGTRLEIKR
notes: as for B1
B17: 29B8-3 (antibody, V domains shown)
VH: QVQLQESGPGLVKPSGTLSLTCAVSGVSISSSNWWSWVRQPPGKGLEWIGEIYHSGNTNYNPSLKSRVTISVDKSKNQFSLKLSSVTAADTAVYYCAETSTITTNYWGQGTLVTVSS
VL: B16 VL with S22T, S28T, T29I, R45K, G50A, G66E, I72T, S91T
notes: as for B1
B18: 4D9-12 (antibody, V domains shown)
VH: B16 VH with R31S, T36S, S41P, N59I
VL: B16 VL with S12L, A13S, Q27H, S28G, T29S, S31T, S67F, L78M
notes: as for B1
B19: 48D10-5 (antibody, V domains shown)
VH: QVQLVQSGAEVKKPGASMKVSCKASGYTFANFGINWVRQAPGQGLEWMGWISAYNGYTNYAQQFQGRITMTTDTSTSTAYMELRSLRSDDTAIYYCVIWFGELLSFDYWGQGTLVTVSS
VL: DIQMTQFPSSLSASVGDRVTITCRASQDISNYLAWFQQKPGKAPKSLIYAASSLQSGVPSKFSGNGFGTDFTFPLSRMQPEDFASSYCQQYNNYTFTFGRGTKVEIKR
notes: as for B1

target: T1, hOX40-EC-His; experiment: ELISA, supernatant stoste, coated OX40 (CK60)

Row | 450 nm light absorption [OD450] | Binder
1 | 2.58 | B1
2 | 2.81 | B2
3 | 3.81 | B3
4 | 2.03 | B4
5 | 1.93 | B5
6 | 2.25 | B6
7 | 2.41 | B7
8 | 2.4 | B8
9 | 1.87 | B9
10 | 2.37 | B10
11 | 1.47 | B11
12 | 2.51 | B12
13 | 2.46 | B13
14 | 2.32 | B14
15 | 2.35 | B15
16 | 2.27 | B16
17 | 2.46 | B17
18 | 2.39 | B18
19 | 2.45 | B19

target: T1, hOX40-EC-His; experiment: ELISA, supernatant 1:100, coated hOX40-EC-His

Row | IgG ELISA (1:100) [OD650] | Binder
20 | 1.9 | B1
21 | 2.1 | B4
22 | 2.1 | B11
23 | 2.1 | B16
24 | 2.3 | B18

target: T1, hOX40-EC-His; experiment: ELISA, supernatant diluted 100 times, coated OX40 (CK60)

Row | 450 nm light absorption [OD450] | Binder
25 | 2.61 | B1
26 | 2.8 | B2
27 | 2.32 | B3
28 | 1.38 | B4
29 | 0.878 | B5
30 | 1.4 | B6
31 | 2.2 | B7
32 | 2.14 | B8
33 | 1.32 | B9
34 | 2 | B10
35 | 0.215 | B11
36 | 2.4 | B12
37 | 2.32 | B13
38 | 1.91 | B14
39 | 2.2 | B15
40 | 2.26 | B16
41 | 2.36 | B17
42 | 1.26 | B18
43 | 2.35 | B19

target: T2, OX40 on OX40 over-expressed cells; experiment: flow cytometry, supernatant on OX40 over-expressed cells
Protocol: After collecting OX40 over-expressed cells by 200G centrifugation, wash them with PBS containing 3% FCS, and then resuspend them in 2.5 ml of PBS containing 3% FCS. […] Finally, the cells were resuspended in […] of PBS containing 3% FCS for detection by flow cytometry.

Row | Y586 channel PE fluorescence value | Binder
44 | 171000 | B1
45 | 343000 | B2
46 | 540000 | B3
47 | 202000 | B4
48 | 221000 | B5
49 | 181000 | B6
50 | 274000 | B7
51 | 437000 | B8
52 | 402000 | B9
53 | 424000 | B10
54 | 243000 | B11
55 | 344000 | B12
56 | 475000 | B13
57 | 416000 | B14
58 | 432000 | B15
59 | 195000 | B16
60 | 388000 | B17
61 | 187000 | B18
62 | 358000 | B19
